# B1: activin A (protein, UniProt P08476 311-426, looked up)
# Inhibin beta A chain: GLECDGKVNICCKKQFFVSFKDIGWNDWIIAPSGYHANYCEGECPSHIAGTSGSSLSFHSTVINHYRMRGHSPFANLKSCCVPTKLRPMSMLYYDDGQNIIKKDIQNMIVEECGCS
# modifications: Inhibin beta A chain
# Legend:
# Format in all cases: cell-based, human
# hESCs [1] = test: Q-PCR of germ layer marker genes (MIXL1, GATA4, HNF3b, SOX7, SPARC, ZIC1, Brachyury) in differentiating hESCs
# Excerpt: We routinely used Q-PCR to measure the gene expression of multiple markers of target and non-target cell types in order to provide a broad profile description of gene expression in cell samples. The markers relevant for the early phases of hESC differentiation (specifically ectoderm, mesoderm, definitive endoderm and extra-embryonic endoderm) and for which validated primer sets are available are provided below in Table 1. […] This is an important fact since the hESCs were often grown on mouse feeder layers. Most typically, triplicate samples were taken for each condition and independently analyzed in duplicate to assess the biological variability associated with each quantitative determination.
# To generate PCR template, total RNA was isolated using RNeasy (Qiagen) and quantitated using RiboGreen (Molecular Probes). Reverse transcription from 350-500 ng of total RNA was carried out using the iScript reverse transcriptase kit (BioRad), which contains a mix of oligo-dT and random primers. Each 20 μL reaction was subsequently diluted up to 100 μL total volume and 3 μL was used in each 10 μL Q-PCR reaction containing 400 nM forward and reverse primers and 5 μL 2×SYBR Green master mix (Qiagen). Two step cycling parameters were used employing a 5 second denature at 85-94° C. (specifically selected according to the melting temp of the amplicon for each primer set) followed by a 45 second anneal/extend at 60° C. Fluorescence data was collected during the last 15 seconds of each extension phase. A three point, 10-fold dilution series was used to generate the standard curve for each run and cycle thresholds (Ct's) were converted to quantitative values based on this standard curve. The quantitated values for each sample were normalized to housekeeping gene performance and then average and standard deviations were calculated for triplicate samples. At the conclusion of PCR cycling, a melt curve analysis was performed to ascertain the specificity of the reaction. A single specific product was indicated by a single peak at the Tm appropriate for that PCR amplicon.
# Definitive endoderm cells were predicted to express high levels of SOX17 mRNA and low levels of AFP and SOX7 (visceral endoderm), SPARC (parietal endoderm) and Brachyury (mesoderm). In addition, ZIC1 was used here to further rule out induction of early ectoderm. Finally, GATA4 and HNF3b were expressed in both definitive and extra-embryonic endoderm, and thus, correlate with SOX17 expression in definitive endoderm (Table 1).
# hESCs [2] = test: CXCR4+ cell number by flow cytometry; conditions: 0, 10, or 100 ng/ml, 7 days (FIGS. 30A-C)
# Description: hESCs were differentiated in RPMI media supplemented with 0.5%-2% FBS (increased from 0.5% to 1.0% to 2.0% over the first 3 days of differentiation) and either 0, 10, or 100 ng/ml of activin A. After 7 days of differentiation the cells were dissociated in PBS without Ca^2+/Mg^2+ containing 2% FBS and 2 mM (EDTA) for 5 minutes at room temperature. The cells were filtered through 35 μm nylon filters, counted and pelleted. Pellets were resuspended in a small volume of 50% human serum/50% normal donkey serum and incubated for 2 minutes on ice to block non-specific antibody binding sites. To this, 1 μl of mouse anti-CXCR4 antibody (Abcam, cat # ab10403-100) was added per 50 μl (containing approximately 10^5 cells) and labeling proceeded for 45 minutes on ice. Cells were washed by adding 5 ml of PBS containing 2% human serum (buffer) and pelleted. A second wash with 5 ml of buffer was completed then cells were resuspended in 50 μl buffer per 10^5 cells. […] Cells were resuspended at 5×10^6 cells/ml in buffer and analyzed and sorted using a FACS Vantage (Beckton Dickenson) by the staff at the flow cytometry core facility (The Scripps Research Institute). Cells were collected directly into RLT lysis buffer (Qiagen) for subsequent isolation of total RNA for gene expression analysis by real-time quantitative PCR.
# CXCR4 gene expression = test: Q-PCR of CXCR4 gene expression in differentiating hESCs
# Description: In these experiments, hESCs were differentiated by growing in RPMI medium (Invitrogen, Carlsbad, Calif.; cat #61870-036) supplemented with 0.5%, 2.0% or 10% FBS and either with or without 100 ng/ml activin A for 6 days. In addition, a gradient of FBS ranging from 0.5% to 2.0% over the first three days of differentiation was also used in conjunction with 100 ng/ml of activin A. After the 6 days, replicate samples were collected from each culture condition and analyzed for relative gene expression by real-time quantitative PCR. The remaining cells were fixed for immunofluorescent detection of SOX17 protein.
# hESCs were differentiated in RPMI media supplemented with 0.5%-2% FBS (increased from 0.5% to 1.0% to 2.0% over the first 3 days of differentiation) and either 0, 10, or 100 ng/ml of activin A. After 7 days of differentiation the cells were dissociated in PBS without Ca^2+/Mg^2+ containing 2% FBS and 2 mM (EDTA) for 5 minutes at room temperature. The cells were filtered through 35 μm nylon filters, counted and pelleted. […] Cells were resuspended at 5×10^6 cells/ml in buffer and analyzed and sorted using a FACS Vantage (Beckton Dickenson) by the staff at the flow cytometry core facility (The Scripps Research Institute). Cells were collected directly into RLT lysis buffer (Qiagen) for subsequent isolation of total RNA for gene expression analysis by real-time quantitative PCR.
# definitive endoderm = test: Dorsal / ventral / PDX1-negative foregut endoderm differentiation from definitive endoderm (marker gene expression); conditions: first four days of differentiation (FIGS. 51A, 51B)
# Description: Definitive endoderm was produced from undifferentiated hESCs using a three or five day protocol in which activin A was provided to the culture medium at a concentration of 100 ng/ml each day. For both dorsal and ventral differentiation, the medium composition for the first five days was as follows: Day 1—RPMI+0% fetal bovine serum (FBS), Day 2—RPMI+0.2% PBS, Day 3—RPMI+2.0% FBS, Day 4—RPMI+2.0% FBS and Day 5—RPMI+2.0% FBS. For the ventral differentiation, definitive endoderm was produced for 3 days in activin A at 100 ng/ml and then exposed to BMP4 at 3 ng/ml and FGF10 at 50 ng/ml. […] For the dorsal differentiation procedure, definitive endoderm was produced for 5 days in activin A at 100 ng/ml and then exposed to retinoic acid (RA) at 2 μM and activin A at 25 ng/ml in CMRL medium containing B27 supplement (1:200).
# Four separate conditions were used to treat hESCs that result in varying proportions of differentiation to definitive endoderm. All four conditions utilized RPMI supplemented with 0% FBS on the first day, 0.2% FBS on second day, and 2% FBS on days 3 and 4. The four conditions were as follows: (a) BMP4 at 100 ng/mL with SU5402 at 5 μM; (b) no exogenous growth factors; (c) activin A at 15 ng/mL; and (d) activin A at 100 ng/ml. […] All cultures were then incubated for 2 days with BMP4 at 3 ng/mL, FGF10 at 50 ng/ml and KAAD-cyclopamine at 0.5 μM in a base medium of 2% FBS in RPMI followed by 6 days with BMP4 at 3 ng/mL, FGF10 at 50 ng/ml and KAAD-cyclopamine at 0.5 μM in a base medium composed of CMRL with 1:200 dilution of B27 extract.
# Definitive endoderm was produced by exposing undifferentiated hESCs to activin at 100 ng/mL in RPMI base medium supplemented with 0%, 0.2%, and 2% FBS on days 1 through 3, respectively. After 3 days of activin A treatment, the cultures were switched to a base medium composed of RPMI containing 2% FBS and maintained under one of the following conditions: (a) BMP4 at 3 ng/ml with FGF10 at 50 ng/ml and KAAD-cyclopamine at 0.5 μM; (b) FGF10 at 50 ng/ml and KAAD-cyclopamine at 0.5 μM; or (c-e) no exogenous factors. After two days, the base medium was changed to CMRL plus B27 supplement (1:200) and cells were maintained according to conditions (a-c) above. Alternatively, cells were maintained with no exogenous factors in RPMI with B27 supplement (1:200) (condition (d)) or RPMI with 2% FBS (condition (e)). The same factor treatment conditions were maintained for 8 more days of differentiation.
# Human embryonic stem cells were differentiated for 7 days via a 2-step protocol to achieve PDX1 cells. The first step comprised 5 days differentiation in activin A (100 ng/ml) to robustly produce DE (D'Amour, K., et al., Nature Biotechnology 23, 1534-1541, (2005)). […]
molecule,measurement,setting,value
B1,mesoderm differentiation (brachyury expression),hESCs [1]; 100 ng/ml (FIG. 14B),notable suppression
same,effect on neural differentiation (ZIC1 expression),hESCs [1]; activin A dose series (FIG. 14A),not a dose-dependent effect
same,"expression of definitive endoderm markers MIXL1, GATA4 and HNF3b",hESCs [1]; activin A dose series (FIGS. 12A-C),dose-dependent increases
same,expression of primitive endoderm (SOX7) and parietal endoderm (SPARC) markers,hESCs [1]; activin A dose series (FIGS. 13B-C),remain either unchanged or exhibit suppression at some time points
same,number of CXCR4+ cells as determined by flow cytometry,hESCs [2],increase dramatically
same,relative levels of CXCR4 gene expression,"CXCR4 gene expression; 0, 10, or 100 ng/ml, 7 days (FIG. 32)",dramatically increased with increasing dose
same,CXCR4 expression,"CXCR4 gene expression; 100 ng/ml (A100) vs no exogenous activin A (NF), 6 days (FIG. 26)",high
same,definitive endoderm production (CER and SOX17 gene expression),definitive endoderm,robust definitive endoderm differentiation

# From patent US11427805B2, “Methods of producing human foregut endoderm cells expressing PDX1 from human definitive endoderm” (ViaCyte, Inc., priority 2005, dated 2022)
